Experimental data: PMC3327287
Where two headings read alike, the source gives them in different places.

What was measured:
[1] = target: F-actin (actin purified from chicken breast muscle) (chicken) (UniProt P68139); assay: co-sedimentation
[2] = target: F-actin (actin purified from chicken breast muscle) (chicken) (UniProt P68139); assay: co-sedimentation; remark: listed apart in the source

percent of NEM-S1 left in the supernatant (not bound) [1]: 20%
percent of NEM-S1 left in the supernatant (not bound) [2]: 20%
Substance: N-ethylmaleimide (NEM) modified skeletal muscle myosin subfragment 1 (S1) (domain or fragment)
